Our source for the Km values is publication PMC3380022, “Basic Residues R260 and K357 Affect the Conformational Dynamics of the Major Facilitator Superfamily Multidrug Transporter LmrP” (PLoS ONE, 2012).

Series [1] has as its system CC[n+]1c(-c2ccccc2)c2cc(N)ccc2c2ccc(N)cc21. As to the kind of experiment: cells, lysate or membranes. The following applies: 50 mM KPi pH 7.0, 5 mM MgSO4, no proton-motive force, 0.25-10 µM ethidium bromide, non-expressing control subtracted.
The test system is the same in series [2]. As to the kind of experiment: facilitated ethidium influx in ATP-depleted cells, fluorimetry, hyperbolic fit. The following applies: 50 mM KPi pH 7.0, 5 mM MgSO4, no proton-motive force, 0.25-10 µM ethidium bromide, non-expressing control subtracted. The class given is cell-based, Lactococcus lactis.

Regarding LmrP (Lactococcus lactis), the Km in series [1] was determined as 0.92 ± 0.30 µM.
As for LmrP (Lactococcus lactis; K357A), in series [2], the Km was determined as 1.42 ± 0.29 µM.
For the substance LmrP (Lactococcus lactis; R260A), in series [2], the Km was determined as 1.49 ± 0.68 µM.
